According to the supplement of paper PMC12042874:
± gives the uncertainty stated by the source.

Assay: amyloid nucleation score (Sup35N fusion, yeast selection) (log enrichment); library NNK2; higher = more nucleation; inactive = no reads after selection
Method in brief: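 Sup35N fusions to peptides of 20 random codons were expressed in psi-negative yeast, induced 24 hours with 100 μM copper sulfate, and grown 7 days at 30°C on medium lacking adenine and uracil. Input and output plasmid inserts were sequenced by Illumina. The nucleation score is the DiMSum log enrichment of output over input reads, centred on the mode score of non-aggregating sequences. Sequences with under 100 input reads were excluded.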

In order of rising amyloid nucleation score:
1. MTFAT  -1.51 ± 1.1
2. RLKVIFRSLFHLLRAVRGSH  -1.36 ± 0.75
3. WVPRRSSLCGAILYLGTKSM  -0.965 ± 0.78
4. DSLLKVLRRIWCLYVGGNLI  -0.758 ± 0.37
5. PREFGRLL  -0.757 ± 0.35
6. IFHHPNHIHVDQFSPLLFYE  -0.64 ± 0.79
7. CRRENRCNRWFQ  -0.602 ± 0.61
8. FSFLKLIADPATLVIGTDSW  -0.492 ± 0.3
9. GFFTPPRVRNNTSEGDVK  -0.418 ± 1.1
10. NNKFLQVSYS  -0.409 ± 0.78
11. CWNDSRMCR  -0.387 ± 0.26
12. YNSVFLRNLRSVGWTKAPLW  -0.387 ± 0.76
13. RTNVWASDI  -0.32 ± 0.39
14. FSSATDVCDGSRSIIRIAGA  -0.283 ± 1
15. RVPFFVGAG  -0.271 ± 0.74
16. GTWMWETFCRLTFVFGIRRG  -0.264 ± 0.54
17. GVKRLVTGVCNKYRDIFFVG  -0.22 ± 1
18. YIKASKMPAEA  -0.216 ± 0.55
19. NRLERMLLTDTDVSEKGSLG  -0.204 ± 0.54
20. GTSFVKFEK  -0.186 ± 0.23
21. YCYARD  -0.172 ± 1.1
22. LSLMTSLRWIGHSSFIVSKP  -0.168 ± 0.79
23. SVKIWCFIWEFPCFMLFRAL  -0.168 ± 1.1
24. GHLNFS  -0.166 ± 1.1
25. ARNPDFRCDSASI  -0.146 ± 1
26. NLYTYAVKAVSYSMTGVFIS  -0.114 ± 1
27. NYSRL  -0.099 ± 0.26
28. VRSYNVKYCSRRNLICGDG  -0.019 ± 0.41
29. VCFGEQT  0 ± 0.21
30. LRLFSFIVMGHNGVKHLVLC  0.011 ± 0.8
31. ACQPVWIESRFSLAERTRLS  0.012 ± 1
32. DPGSRDMIG  0.043 ± 1
33. DGVSMFWMPHAKRALLYGSY  0.063 ± 1.1
34. PHCCCRTSHLSPLNQRDKGS  0.11 ± 0.77
35. SRHVLSKRFRWYT  0.196 ± 0.26
36. GDKVACKEIWTVNVYVNTLG  0.229 ± 0.26
37. VYAVDTTW  0.237 ± 0.29
38. RQMMWRYEE  0.3 ± 0.32
39. QPPMRVYSLVMLCDAVSSKD  0.339 ± 0.56
40. LPLILV  0.356 ± 0.8
41. SKSAPC  0.39 ± 0.29
42. TCAGIV  0.408 ± 0.41
43. RHDLWAPRTERMMVYMCTAA  0.544 ± 0.26
44. FREVRRF  0.631 ± 0.41
45. KRNVLRVTSCHKEYSVGSVP  0.739 ± 0.22
46. CFVSNRDYDF  0.773 ± 0.42
47. GVMRIHCGDREC  0.8 ± 0.54
48. VKTRVQPRTGDLSATLLGLE  0.828 ± 0.48
49. AYWVQGCLLQMRMT  0.891 ± 0.22
50. YGGPGRNKGPNSCRSTATSV  1.02 ± 0.17
51. AKKLMSWEAVVLWGASRCVT  1.08 ± 0.42
52. EESYLSHGL  1.22 ± 0.61
53. SSLVWLKMNGNGTKTVFMN  1.24 ± 0.14
54. GDMVIDLSKYITYSSL  1.37 ± 0.38
55. ISRIIVPDSRLAYGEWFEIV  1.53 ± 0.58
56. TYVLSGEGEIKA  1.54 ± 0.33
57. DSASVRVVIADEDLSAVVRA  1.72 ± 0.27
58. GVRDVIQL  2.05 ± 0.26
59. PICLPVNMLVFKSMNSN  2.28 ± 0.073
60. SRTWEFSFR  2.5 ± 0.12
61. ASTFYMVGSIG  2.8 ± 0.083
62. TGHKFPLRGSMRVVLDFFSR  3.09 ± 0.089
63. AFSSCSMFATNRLPTSYKSD  3.48 ± 0.084
64. IPWVNRTPCSTCGGFRFTDP  3.53 ± 0.08
65. HIGIWGRQTLR  3.55 ± 0.049
66. TMRFLVGFCLTNWDNLNASC  3.67 ± 0.05
67. VARVWEWFCVCWTWDSELVG  3.69 ± 0.057
68. LGCICMR  4.09 ± 0.071
69. RVLISQGLMYISHTMSG  5.337 ± 0.044
70. SFYRCGLNYCNGTS  5.94 ± 0.06
71. IWHFYIACLGVSNESISGFG  6.77 ± 0.068
72. SKIVYFSYYTQM  6.775 ± 0.049
73. SYFEMAYEWYCMNWMGEVIK  9.197 ± 0.054

For GVSVV, the amyloid nucleation score was “inactive”.
In the case of CVGNNMCSGKNF, the amyloid nucleation score is reported as “inactive”.
With YFKFFWNAQMLGCA the amyloid nucleation score was “inactive”.
For ACRLISLVML, the amyloid nucleation score was “inactive”.
For PCENLVCEII, the amyloid nucleation score was “inactive”.
With HIFVVGMDRSVVSRSVEP the amyloid nucleation score was “inactive”.
In the case of VYMGEELVLVISVKDR, the amyloid nucleation score is reported as “inactive”.
With FFFNVSLHVRNFLEEVSVAS the amyloid nucleation score was “inactive”.
In the case of TVCFDSLNHITSFIRGRFSL, the amyloid nucleation score is reported as “inactive”.
For VVSSSTSFTAGTRVM, the amyloid nucleation score was “inactive”.
For RNPVTSIVQVHDKMGRRSKS, the amyloid nucleation score was “inactive”.
In the case of CITSSSLCSDPYLCLSAKNL, the amyloid nucleation score is reported as “inactive”.
With SVFYIYWRSWLFFRSLGLFI the amyloid nucleation score was “inactive”.
For AMGMRTSYCGC, the amyloid nucleation score was “inactive”.
